Data reported in patent US9969998B2, “Compositions of adenosine deaminase-2 (ADA2), variants thereof and methods of using same” (Halozyme, Inc., priority 2014, dated 2018).
Where a chain is given by its changes, count along the chain named. Numbers in names are those of the source.

Tests used:
ADA2 = target: T1, ADA2 (Homo sapiens, UniProt Q9NZK5); details: cited from earlier work
T1 sequence (Q9NZK5 30-511): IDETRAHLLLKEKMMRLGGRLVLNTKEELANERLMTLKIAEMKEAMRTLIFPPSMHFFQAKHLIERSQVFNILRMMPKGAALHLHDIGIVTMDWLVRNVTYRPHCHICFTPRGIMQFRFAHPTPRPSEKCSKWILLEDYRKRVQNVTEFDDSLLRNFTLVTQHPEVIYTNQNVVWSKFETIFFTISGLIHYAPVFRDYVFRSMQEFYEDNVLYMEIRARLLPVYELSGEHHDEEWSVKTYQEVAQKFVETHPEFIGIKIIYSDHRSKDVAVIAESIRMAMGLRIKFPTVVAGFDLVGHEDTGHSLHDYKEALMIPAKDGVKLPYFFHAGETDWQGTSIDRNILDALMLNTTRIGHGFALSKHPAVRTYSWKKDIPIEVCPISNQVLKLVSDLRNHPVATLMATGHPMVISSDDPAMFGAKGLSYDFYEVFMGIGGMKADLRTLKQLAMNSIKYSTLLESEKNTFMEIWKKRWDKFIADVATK

ADA1 = target: T2, ADA1 (Homo sapiens, UniProt P00813); details: cited from earlier work
T2 sequence (P00813 1-363): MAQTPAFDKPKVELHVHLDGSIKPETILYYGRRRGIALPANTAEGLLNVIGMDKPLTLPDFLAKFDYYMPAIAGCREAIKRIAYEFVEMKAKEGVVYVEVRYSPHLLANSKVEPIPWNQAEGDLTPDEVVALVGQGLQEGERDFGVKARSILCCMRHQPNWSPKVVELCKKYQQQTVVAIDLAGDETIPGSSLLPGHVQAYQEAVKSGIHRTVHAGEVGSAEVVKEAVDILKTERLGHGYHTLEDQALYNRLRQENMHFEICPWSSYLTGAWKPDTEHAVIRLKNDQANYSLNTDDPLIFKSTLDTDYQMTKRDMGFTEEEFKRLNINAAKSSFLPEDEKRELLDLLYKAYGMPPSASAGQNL

[1] = system: MH194+PSC4 pancreatic tumor; assay: Tumor growth inhibition and survival, MH194+PSC4 syngeneic tumor model; format: in vivo, C57BL/6 mice; details: for Tumor Growth Inhibition: vs vehicle; for Increase in MST: vs vehicle (MST 27 days)
Method: The murine MH194+PSC4 syngeneic tumor model was used to assess the antitumor efficacy of PEGylated a recombinant adenosine deaminase 2 (ADA2), PEGylated rHuADA2-R222Q/S265N (PEG-R222Q/S265N; PEG-R219Q/S262N by mature numbering).
The PSC4 cells are isolated and immortalized pancreatic stellate cells. To generate the PSC4 cells, pancreas from C57BL/6 mice were minced with razor blades and placed in 2 mL of a digestion buffer containing 0.05% collagenase P, 0.1% DNAse, and 0.02% Pronase in Gey's balanced salt solution (GBSS). Following two 15 min digestion incubations at 37° C. with thorough mixing after each incubation, the resulting cell suspension was filtered through a 100 μm nylon mesh, washed twice in GBSS with 0.3% bovine serum albumin (BSA), and resuspended in 10 mL GBSS/BSA. Eight mL of Histodenz (Sigma, Cat. No. D2158) was added to the cell suspension, and the entire volume was pipetted under 6 mL GBSS/BSA in order to generate a discontinuous density gradient. Following centrifugation for 20 min at 1,400 g with the brake set at zero, the desired cells were harvested from the interface between the two density volumes and washed once with PBS and once with DMEM medium supplemented with 2 mM L-glutamine, 10% fetal bovine serum, and 1% amphotericin-B (complete DMEM). Cells were immortalized using Lenti-SV40 (Capital Biosciences, Cat. No. CIP-0011) using manufacturer's protocol. The resulting cell line, designated PSC4, were maintained in tissue culture as an adherent monolayer in complete DMEM at 37° C. and 5% CO2. The MH194 mouse pancreatic carcinoma cells are derived from the KrasLSL.G12D/+p53R172H/+PdxCretg/+ genetically engineered mouse model. […]
Thirty-nine (39) male C57BL/6 mice were co-inoculated subcutaneously with 5×10^6 of a mixture of murine MH194 pancreatic cancer tumor cells and murine PSC4 pancreatic stellate cells in 0.1 mL injection volume per animal. Tumor volume was determined using digital calipers via measurement of length (L) and width (W) of the solid tumor masses. Tumor volume (TV) was calculated as: (L×W^2)/2. Tumors were allowed to grow and tumor bearing mice were staged for test article administration when the tumors were palpable and measured to be approximately 50-100 mm^3.
PEG-R222Q/S265N was prepared using similar methods as described in Example 8.A, with minor modifications to generate a preparation in which approximately 100% of the molecules were PEGylated as assessed by SDS-PAGE.
For treatment, MH194+PSC4 tumor bearing mice were randomized into five treatment groups (n=≤8); vehicle control (buffer only) or PEG-R222Q/S265N at four treatment doses. MH194+PSC4 tumor bearing mice were then injected intravenously (IV) every other day, at 0.003 mg/kg body weight, 0.03 mg/kg body weight, 0.3 mg/kg body weight and 3 mg/kg body weight of PEG-R222Q/S265N, or vehicle. […] Median survival time (MST) (in days) was calculated as the time at which 50% of the mice of the individual groups reached one of the following endpoints: (1) tumor volume reaches 2000 mm^3, (2) the animal loses >25% of its body weight, or (3) the animal appears moribund.

[2] = In vivo pharmacokinetics of PEGylated rHuADA2 combination variants (Example 14); details: 3 mg/kg intravenous
Excerpt: (§1) Twenty-seven (27) male BALB/c mice were divided into three (3) dosing groups, and were further divided into three (3) groups each for sampling of blood at different time points. Thus, the mice were randomized into nine (9) groups total. Mice were weighed prior to the start of the study, and randomized into the 9 groups based upon their body weights. In each sampling group, three groups of (3) mice were used for dosing each test article to prevent oversampling of the blood from the animals. For measurement of baseline ADA2 levels, a blood sample was obtained from 12 randomly chosen mice and plasma was prepared using the anti-coagulant potassium (K3) ethylene diamine tetraacetic acid (K3-EDTA). All blood was collected by submandibular venipuncture.
(§2) PEGylated ADA2 variants were prepared using the PEGylation method as described in Example 8.A, with minor modifications. Briefly, all ADA2 variants at 10 mg/mL were PEGylated with linear PEG-20K (JenKem Technology, Plano, Tex.; Cat. No. M-SCM-20K) at 1:15 molar ratio and incubated first at 37° for 30 min, then at 4° C. for 16 hours.
(§3) Approximately 200 μL of whole blood was collected at designated sampling time points from appropriate groups of mice as indicated below in Table 38 and kept on ice until plasma preparation. The initial two (2) blood samples were collected by submandibular venipuncture. The final sample was collected from a terminal bleed. Plasma was prepared by centrifuging the blood (500×g for 5 min at 4° C.), transferring the plasma to a fresh tube and immediately freezing at −80° C. until the adenosine deaminase activity assay. Adenosine deaminase activity was determined as described in Example 4.
(§4) Non-compartmental analysis (NCA) was conducted using the Phoenix WinNonlin version 6.3 (Pharsight Corp, St. Louis, Mo. 63101). The half-life, or time taken for the activity of ADA2 proteins to be reduced by half, was calculated. Also, total exposure was measured by calculating the Area Under the Concentration-time Curve (AUC). The AUC and half-life values were obtained from the unweighted average from each test article group. The following options in the Phoenix WinNonlin program were used for data analysis: (i) linear trapezoidal/linear interpolation option for AUC; (ii) best-fit slope selection option for terminal slope; and (iii) uniform weighting of the data.

[3] = mouse, in vivo, iv, 3 mg/kg
Excerpt: as §1, §2, §3, §4

[4] = 0.003 mg/kg IV every other day, day 11
[5] = 0.03 mg/kg IV every other day, day 11
[6] = 0.3 mg/kg IV every other day, day 11
[7] = 3 mg/kg IV every other day, day 11
[8] = day 11, 0.003 mg/kg IV every other day
[9] = male BALB/c mice, WT from Example 9

## OC[C@H]1O[C@@H](n2cnc3c2N=CNC[C@H]3O)[C@H](O)[C@@H]1O [Coformycin]
ADA2
  inhibition of ADA2: potent inhibitors
ADA1
  inhibition of ADA1: potent inhibitors

## CCCCCC[C@H]([C@H](C)O)n1cnc2c(N)ncnc21 [EHNA, (+)-erythro-9-(2-hydroxy-3-nonyl)adenine]
ADA2
  inhibition of ADA2: does not inhibit ADA2
ADA1
  inhibition of ADA1: selectively inhibits ADA1

B1: PEG-R222Q/S265N: rHuADA2-R222Q/S265N (SEQ ID NO:273) PEGylated with linear PEG-20K (conjugate)
chain: T1 sequence (Q9NZK5 30-511) with R219Q, S262N
modifications: linear PEG-20K; human ADA2 R219Q/S262N, mature numbering
[1]; 0.003 mg/kg IV every other day
  MST (median survival time): 46 days
  Increase in MST: 70%
[1]; [4]
  Average Tumor Volume: 323.9 mm^3
  Tumor Growth Inhibition: 72%
[1]; 0.003 mg/kg dose
  median survival time (MST): 46 days
  mice that survived beyond 41 days: Five out of eight
[1]; 0.03 mg/kg IV every other day
  MST (median survival time): 26 days
  Increase in MST: 0%
[1]; [5]
  Average Tumor Volume: 680.45 mm^3
  Tumor Growth Inhibition: 21%
[1]; 0.3 mg/kg IV every other day
  MST (median survival time): 32.5 days
  Survival time: 13 to 41 days
  Increase in MST: 20%
[1]; [6]
  Average Tumor Volume: 700.59 mm^3
  Tumor Growth Inhibition: 20%
[1]; 3 mg/kg IV every other day
  MST (median survival time): 23.5 days
  Increase in MST: 0%
[1]; [7]
  Average Tumor Volume: 678.58 mm^3
  Tumor Growth Inhibition: 22%
[1]; [8]
  Average Tumor Volume: approximately 324 mm^3
  tumor growth inhibition (TGI): approximately 72%
[2]; BALB/c mice, plasma ADA activity
  AUC (total exposure): 16,330 (U * h)/mL
[2]; BALB/c mice, vs non-PEGylated WT rHuADA2 of Example 9
  Percent increase in AUC compared to WT ADA2: 49,661%
[2]; [9]
  AUC higher than the non-PEGylated WT rHuADA2: 49661%
  half-life longer than the non-PEGylated WT rHuADA2: 4043%
[3]
  Half-life slow (t1/2): 2,790 min
  Percent increase in t1/2 compared to WT ADA2: 4,043%
